In general, stoichiometry N refers to a count of units in the complex or per binding partner.

The record followed here is PMC4850634, “Characterization of an A-kinase anchoring protein-like suggests an alternative way of PKA anchoring in Plasmodium falciparum” (Malaria Journal, 2016).

This data set deals with the molecule itself. Description: SEC; Superdex S200 10/300 Increase, 20 mM Tris-HCl pH 8, 300 mM NaCl; affinity-purified (His)6 protein; peak fractions checked by 12.5 % SDS-PAGE. Background: In gel filtration, larger molecules generally elute earlier.

B1: (His)6-Pf14-3-3I (natural protein, Plasmodium falciparum, UniProt C0H4V6 1-262, looked up)
chain: MATSEELKQLRCDCTYRSKLAEQAERYDEMADAMRTLVEQCVNNDKDELTVEERNLLSVAYKNAVGARRASWRIISSVEQKEMSKANVHNKNVAATYRKKVEEELNNICQDILNLLTKKLIPNTSESESKVFYYKMKGDYYRYISEFSCDEGKKEASNCAQEAYQKATDIAENELPSTHPIRLGLALNYSVFFYEILNQPHQACEMAKRAFDDAITEFDNVSEDSYKDSTLIMQLLRDNLTLWTSDLQGDQTEEKSKDEGLE
notes: 14-3-3I protein, Plasmodium falciparum, PlasmoDB MAL8P1.69/PF3D7_0818200; amplified from a P. falciparum cDNA library with primers from the start to the stop codon, cloned into pRSFDuet; recombinant protein 30 kDa; source: E. coli BL21 Codon Plus, purified (Ni-NTA-agarose)
For B1, the “stoichiometry N” value worked out at 2.
